From the supplement of paper PMC7125110
± gives the standard error. Fewer inactive variants are shown than the library holds.

B1: glmS ribozyme (parent)
chain: AUAAAAGCGCCAGAACUACAGAAAUGUAGUUGACGAGGAGGAGGUUUAUCGAAUUUUCGGCGGAUGCCUCCAAA

Key:
Settings in all cases: with glucosamine-6-phosphate
[1] = variants of: B1; assay: self-cleavage kobs at 40 uM GlcN6P; higher = faster cleavage; RNA array
How it was run: (§1)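 Barcoded glmS ribozyme variants on sequenced MiSeq chips were transcribed in situ by E. coli RNA polymerase and tracked through a hybridised Cy3 probe at 37 °C. Glucosamine-6-phosphate (40 μM to 10 mM) in HEPES/KCl/Mg(OAc)2 buffer was flowed in, and tiles were imaged over ~14 h. Signals were normalised to baseline and to non-cleaving reference variants; per-tile medians were fit to one- or two-exponential decays to give kobs. kcat and KM came from weighted Michaelis–Menten fits across concentrations.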

[2] = variants of: B1; assay: self-cleavage kobs at 10000 uM GlcN6P; higher = faster cleavage; RNA array
How it was run: as §1

[3] = variants of: B1; assay: self-cleavage kobs at 640 uM GlcN6P; higher = faster cleavage; RNA array
How it was run: as §1

[4] = variants of: B1; assay: self-cleavage kobs at 2500 uM GlcN6P; higher = faster cleavage; RNA array
How it was run: as §1

[5] = variants of: B1; assay: self-cleavage kobs at 160 uM GlcN6P; higher = faster cleavage; RNA array
How it was run: as §1

Row | Variant | self-cleavage kobs at 40 uM GlcN6P [1] [s⁻¹] | self-cleavage kobs at 10000 uM GlcN6P [2] [s⁻¹] | self-cleavage kobs at 640 uM GlcN6P [3] [s⁻¹] | self-cleavage kobs at 2500 uM GlcN6P [4] [s⁻¹] | self-cleavage kobs at 160 uM GlcN6P [5] [s⁻¹]
1 | A14G C16A U17C A18U C19A A20C | 0.000161 ± 4.5e-05 | 0.00427 ± 0.00081 |  |  | 
2 | G13C G37A C50U G59C | < 1e-05 |  | < 1e-05 | < 1e-05 | 
3 | A12C G32A G44C | < 1e-05 |  |  | < 1e-05 | 
4 | G13U G43C | < 1e-05 | < 1e-05 | < 1e-05 | < 1e-05 | < 1e-05
5 | G13A G59U | < 1e-05 |  |  |  | 
6 | G13U A52C | < 1e-05 | < 1e-05 |  | < 1e-05 | 
7 | G13C A33G A48C | < 1e-05 |  |  | < 1e-05 | 
8 | G13A G37U A39G G41C A42C G43A | < 1e-05 | < 1e-05 |  |  | 
9 | G13U C34A U49A U65C | < 1e-05 | < 1e-05 |  |  | 
10 | C11U U30C A52C | < 1e-05 |  |  |  | 
11 | G13C G43U A52U | < 1e-05 | < 1e-05 | < 1e-05 | < 1e-05 | 
12 | C11U U49C G51U | < 1e-05 |  |  |  | 
13 | C11U G41C | < 1e-05 |  |  |  | < 1e-05
14 | A12C A64U C68G | < 1e-05 |  |  |  | 
15 | C11U C58G C68U | 7.67e-05 ± 2.5e-05 | 5.66e-05 ± 1.6e-05 | 0.000262 ± 7e-05 |  | 0.000349 ± 9.1e-05
16 | A14G G38A | < 1e-05 |  |  |  | 
17 | A12U U55A | 0.00252 ± 0.00039 | 0.0587 ± 0.02 | 0.0231 ± 0.0089 |  | 0.00433 ± 0.0018
18 | A12U C16U G62A | < 1e-05 |  |  |  | 
19 | G13U A36U | < 1e-05 | < 1e-05 | < 1e-05 | < 1e-05 | < 1e-05
20 | G13A G62A | < 1e-05 | < 1e-05 | < 1e-05 | < 1e-05 | < 1e-05
21 | C11U G43C | < 1e-05 |  | < 1e-05 | < 1e-05 | < 1e-05
22 | A14U U30C G44A U46G | < 1e-05 | < 1e-05 | < 1e-05 | < 1e-05 | 
23 | G13C A48C | < 1e-05 | < 1e-05 |  | < 1e-05 | < 1e-05
24 | A14G G29U A36G | < 1e-05 |  |  |  | 
25 | A14U A33U C34G G35C U69A | 3.35e-05 ± 1e-05 | 7.09e-05 ± 1.3e-05 |  |  | 

Row | Variant | self-cleavage kobs at 40 uM GlcN6P [1] [s⁻¹] | self-cleavage kobs at 10000 uM GlcN6P [2] [s⁻¹] | self-cleavage kobs at 640 uM GlcN6P [3] [s⁻¹] | self-cleavage kobs at 2500 uM GlcN6P [4] [s⁻¹] | self-cleavage kobs at 160 uM GlcN6P [5] [s⁻¹]
26 | A12U G32U A53G | < 1e-05 | 0.000231 ± 6.4e-05 |  | 0.000144 ± 3.6e-05 | 
27 | C11U U31C U47C A52U | < 1e-05 | < 1e-05 |  |  | 
28 | C11U C34G G41A U47G | < 1e-05 | < 1e-05 | < 1e-05 | < 1e-05 | 
29 | G13A C50A U69G | 4.48e-05 ± 2.2e-05 |  |  |  | 
30 | G13A A15C G38U A48G A52C | < 1e-05 | < 1e-05 |  |  | 
31 | C11U G32C | < 1e-05 | < 1e-05 | < 1e-05 |  | < 1e-05
32 | G13U G44U G51C | < 1e-05 |  |  |  | 
33 | C11U G29C C34A G37U | < 1e-05 |  | < 1e-05 |  | 
34 | A14C C34A C67U | < 1e-05 | < 1e-05 |  | < 1e-05 | 
35 | A12U A15U C16A G41A G66A | < 1e-05 |  |  |  | 
36 | A14U C16U G29U C50A G62U | < 1e-05 |  |  |  | 
37 | G13U A48G U65C U69G | < 1e-05 |  |  |  | 
38 | G13A G41C | < 1e-05 |  | < 1e-05 |  | 
39 | A14C C34A | < 1e-05 | < 1e-05 | < 1e-05 |  | < 1e-05
40 | A12U A14G C68U | 0.000526 ± 0.0001 |  |  |  | 
41 | G13C G29U G32A U54G U65C C68G U69G | 0.00014 ± 4.1e-05 | 0.000151 ± 3.1e-05 | 0.000623 ± 0.00016 | 9.24e-05 ± 2.8e-05 | 0.000198 ± 5.6e-05
42 | A14U C50G C58G | 0.000124 ± 3.9e-05 | 0.000108 ± 2.7e-05 |  |  | 
43 | A12U C67A | 0.000743 ± 7.6e-05 |  | 0.00261 ± 0.00048 | 0.0101 ± 0.0038 | 0.000983 ± 0.00027
44 | G13U U45G | < 1e-05 | 0.000133 ± 1.8e-05 |  | 8.28e-05 ± 2e-05 | 
45 | A14G U54C U69C | 0.000416 ± 9.9e-05 | 0.0047 ± 0.0013 | 0.0011 ± 0.00044 | 0.000161 ± 5.8e-05 | 
46 | A14U G51A U57C G60U A64G U65G | < 1e-05 |  |  |  | 
47 | A14G G62U | < 1e-05 | < 1e-05 |  | < 1e-05 | 
48 | G13U G38A A39U | < 1e-05 |  |  |  | 
49 | C11U C34A | < 1e-05 |  | < 1e-05 |  | 
50 | A14G G44U U49C | < 1e-05 |  |  |  | 
